Test results published in PMC5385344, “Large Diversity of Functional Nanobodies from a Camelid Immune Library Revealed by an Alternative Analysis of Next-Generation Sequencing Data” (Frontiers in Immunology, 2017).
Each block holds one binder with its values, some of them ahead of it.

Tests used:
[1] = target: T1, RON endogenously expressed on T-47D human breast cancer cells (Homo sapiens (T-47D cell line), UniProt Q04912); assay: cell-based or functional assay
[2] = target: T2, Recombinant extracellular domain of human RON (rhRON) (human, UniProt Q04912); assay: SPR; ProteOn; rhRON immobilised on GLC chip; 1/10 diluted crude periplasmic extracts injected 2 min at 45 µl/min; Langmuir model, off-rate only; settings: one partner purified
T2 construct: recepteur d'origine nantais (RON) receptor tyrosine kinase, human, recombinant extracellular domain; also called recepteur d'origine nantais; source: bought: R&D Systems
T2 sequence (Q04912 25-957): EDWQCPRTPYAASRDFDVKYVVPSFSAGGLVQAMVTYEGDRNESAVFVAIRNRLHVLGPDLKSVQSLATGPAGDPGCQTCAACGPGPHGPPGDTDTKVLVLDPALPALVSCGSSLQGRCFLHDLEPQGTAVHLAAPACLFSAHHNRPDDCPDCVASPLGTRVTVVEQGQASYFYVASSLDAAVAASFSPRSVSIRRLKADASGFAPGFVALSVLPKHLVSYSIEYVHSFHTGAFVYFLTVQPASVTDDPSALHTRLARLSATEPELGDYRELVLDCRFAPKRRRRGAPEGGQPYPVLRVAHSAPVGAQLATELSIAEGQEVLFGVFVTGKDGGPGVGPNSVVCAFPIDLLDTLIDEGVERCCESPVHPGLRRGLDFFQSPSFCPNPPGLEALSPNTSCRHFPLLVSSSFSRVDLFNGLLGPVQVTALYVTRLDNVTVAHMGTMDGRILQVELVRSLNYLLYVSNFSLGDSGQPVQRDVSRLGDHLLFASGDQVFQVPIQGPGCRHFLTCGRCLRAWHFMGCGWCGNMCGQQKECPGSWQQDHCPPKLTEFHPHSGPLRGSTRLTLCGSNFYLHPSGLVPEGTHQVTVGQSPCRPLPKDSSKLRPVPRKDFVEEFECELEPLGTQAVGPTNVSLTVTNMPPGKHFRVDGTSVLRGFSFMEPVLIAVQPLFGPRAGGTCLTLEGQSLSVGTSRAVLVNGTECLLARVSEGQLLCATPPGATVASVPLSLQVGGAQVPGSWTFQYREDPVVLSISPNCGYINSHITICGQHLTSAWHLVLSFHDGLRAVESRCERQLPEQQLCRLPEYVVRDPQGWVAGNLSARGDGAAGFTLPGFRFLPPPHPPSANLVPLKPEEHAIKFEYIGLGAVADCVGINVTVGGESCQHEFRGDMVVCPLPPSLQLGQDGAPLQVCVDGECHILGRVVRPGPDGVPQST

[3] = target: T1, RON endogenously expressed on T-47D …; assay: flow cytometry on cells; dilution series of purified nanobodies starting at 500 nM on T-47D cells endogenously expressing RON; anti-FLAG then anti-mouse APC; settings: one partner purified
[4] = target: T2, Recombinant extracellular domain of …; assay: ELISA; ligand competition: rhRON (1 µg/ml) immobilised directly; dilution series of purified nanobodies starting at 1 µM added together with 2 nM biotinylated MSP; MSP detected by extravidin peroxidase; settings: both partners purified
[5] = target: T3, full-length human RON expressed on HEK293T cells (HEK293T-hRON) (Homo sapiens, UniProt Q04912); assay: flow cytometry on cells; 1/10 diluted crude periplasmic extracts on HEK293T-hRON and HEK293T cells; anti-FLAG then anti-mouse APC; positive if normalised ratio ≥2; settings: partners not purified
T3 construct: also called cell-expressed RON; source: HEK293T, transiently transfected (pcDNA3.1), on cells
T3 sequence (Q04912 25-1400): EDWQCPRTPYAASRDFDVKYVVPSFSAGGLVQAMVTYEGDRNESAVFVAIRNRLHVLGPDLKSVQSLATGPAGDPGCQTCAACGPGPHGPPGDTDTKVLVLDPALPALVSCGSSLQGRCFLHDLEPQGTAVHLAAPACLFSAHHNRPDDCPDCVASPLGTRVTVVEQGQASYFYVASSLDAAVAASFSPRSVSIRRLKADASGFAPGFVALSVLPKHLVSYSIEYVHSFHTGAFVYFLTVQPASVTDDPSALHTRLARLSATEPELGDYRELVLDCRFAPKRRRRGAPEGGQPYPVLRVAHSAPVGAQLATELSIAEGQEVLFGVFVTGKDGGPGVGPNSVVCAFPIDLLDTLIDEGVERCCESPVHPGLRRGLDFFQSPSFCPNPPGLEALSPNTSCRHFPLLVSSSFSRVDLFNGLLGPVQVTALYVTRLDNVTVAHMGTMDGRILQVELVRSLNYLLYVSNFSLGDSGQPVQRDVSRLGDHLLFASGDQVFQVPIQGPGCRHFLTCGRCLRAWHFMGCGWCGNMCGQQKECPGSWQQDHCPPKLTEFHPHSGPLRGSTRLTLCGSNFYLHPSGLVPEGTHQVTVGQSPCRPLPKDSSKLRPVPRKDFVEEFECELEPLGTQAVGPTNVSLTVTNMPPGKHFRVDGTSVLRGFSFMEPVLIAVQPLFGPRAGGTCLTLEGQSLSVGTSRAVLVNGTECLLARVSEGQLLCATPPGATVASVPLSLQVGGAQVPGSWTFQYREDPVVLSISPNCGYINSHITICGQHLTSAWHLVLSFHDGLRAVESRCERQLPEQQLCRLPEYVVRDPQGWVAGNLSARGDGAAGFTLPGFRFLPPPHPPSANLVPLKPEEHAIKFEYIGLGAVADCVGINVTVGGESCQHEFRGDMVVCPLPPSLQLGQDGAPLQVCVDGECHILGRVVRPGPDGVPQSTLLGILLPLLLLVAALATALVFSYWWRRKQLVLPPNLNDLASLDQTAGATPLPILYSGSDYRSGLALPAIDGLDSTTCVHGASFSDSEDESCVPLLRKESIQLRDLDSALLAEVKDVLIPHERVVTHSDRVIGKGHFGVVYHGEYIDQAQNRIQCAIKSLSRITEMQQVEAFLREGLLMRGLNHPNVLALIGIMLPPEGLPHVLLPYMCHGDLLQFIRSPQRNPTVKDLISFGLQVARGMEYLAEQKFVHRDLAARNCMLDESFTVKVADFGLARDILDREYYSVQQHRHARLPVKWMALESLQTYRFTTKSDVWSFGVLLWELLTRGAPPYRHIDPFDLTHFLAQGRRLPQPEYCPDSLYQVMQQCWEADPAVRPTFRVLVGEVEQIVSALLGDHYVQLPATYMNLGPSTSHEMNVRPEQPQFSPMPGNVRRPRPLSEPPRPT

[6] = target: T2, Recombinant extracellular domain of …; assay: ELISA; rhRON (1 µg/ml) immobilised directly on 384-well plates; crude periplasmic extracts of nanobodies; detection by anti-FLAG HRP; positive if OD450 ratio to a negative control nanobody ≥2; settings: one partner purified

T1 sequence (Q04912 25-1400): as above

- binding result [5]: no binding
- binding result [6]: no binding
B3: nanobody NGS00027 (VHH)
VHH: EVQLVESGGGLVQVGASLRLSCRASGGTFDDYAMGWFRQRPGEEREFVAVISWNGAMTYYLNHIKGRFTISRDNAKNTAYLQMNNLEPGDTAVYYCAAERTLGWGVNPEAYASWGQGTLVTVSS
notes: majority-rule consensus of an NGS cluster; One of the 28 randomly selected NGS clusters; source: E. coli, crude periplasmic extract (synthetic DNA); not shown: FLAG3, C-terminal, kept

- binding result [5]: no binding
- binding result [6]: no binding
B4: nanobody NGS00020 (VHH)
VHH: EVQLVESGGALVQAGDSLRVSCVASGRTFSRYAMGWFRQAPGKQREFVAAISWDGDSTSYANSLKGRFTISRDNAKNTGYLYMNSLIPEDTAVYYCAADRGRTTAWTYWGEGTLVTVSS
notes: as for B3

- IC50 (M) inhibition of ERK phosphorylation induced by 1 nM MSP through RON on T-47D cells; purified nanobody, HTRF phospho-ERK [1]: 6e-09 M
- maximum inhibition (efficacy) of MSP-induced ERK phosphorylation in T-47D cells [1]: 100%
- koff [2]: 0.00046 s⁻¹
- EC50 [3]: 0.053 nM
- IC50 [4]: 9.7 nM
- maximum inhibition of MSP binding [4]: 98%
B5: nanobody 11F05 (VHH)
VHH: EVQLVESGGGSVQAGGSLRLSCAASGRYRMGWFRQAPGKEREFVAVISASGGSTYYADSVKGRFTIARDNAKTMVYLQMNSLKPEDTAVYYCAAKVNYYGDYDLAQNYDYWGQGTQVTVSS
notes: From a llama immunised with rhRON; found by conventional screening and by NGS; source: E. coli, crude periplasmic extract; E. coli, purified; not shown: FLAG3, C-terminal, kept

- binding result [5]: no binding
- binding result [6]: no binding
B9: nanobody NGS00003 (VHH)
VHH: EVQLVESGGGLVQPGGSLRLSCAASGFAFSRYWMYWVRQAPGKGLEWVSAISSSGSSTDYVDSVKGRFTVSRDNAKNTLYLQMNGLKSEDTAIYYCAKDTRQFIRSNYDNGGQGTLVTVSS
notes: as for B3

Continued, binder first:

B1: nanobody 8F09 (VHH)
VHH: EVQLVESGGGLVQAGGSLRLSCEASGRYVMGWFRQAPGKEREFVAVISRSGGSTNYADSVKGRFSVSRDSAKNTVYLQMNDLKPEDTAVYYCAASNRYGTNVLVTTALYDYWGQGTQVTVSS
notes: as for B5
- IC50 (M) inhibition of ERK phosphorylation induced by 1 nM MSP through RON on T-47D cells; purified nanobody, HTRF phospho-ERK [1]: 5.2e-09 M
- maximum inhibition (efficacy) of MSP-induced ERK phosphorylation in T-47D cells [1]: 99%
- koff [2]: 0.00064 s⁻¹
- EC50 [3]: 0.2 nM
- IC50 [4]: 12 nM
- maximum inhibition of MSP binding [4]: 98%

B2: nanobody 2C06 (VHH)
VHH: EVQLVESGGGLVQTGGSLRLSCARSGPTFSDYAMAWFRQARGKEREFVASITWIGGSTYYADSVKGRFTISRDSAKDTMYLQMNTLKPEDTADYYCAIARLGTYYGSYIRAYFNRGRYEYWGQGTQVTVSS
notes: as for B5
- IC50 (M) inhibition of ERK phosphorylation induced by 1 nM MSP through RON on T-47D cells; purified nanobody, HTRF phospho-ERK [1]: 3e-07 M
- maximum inhibition (efficacy) of MSP-induced ERK phosphorylation in T-47D cells [1]: 92%
- koff [2]: 0.0069 s⁻¹
- EC50 [3]: > 1000 nM
- IC50 [4]: 250 nM
- maximum inhibition of MSP binding [4]: 90%

B6: nanobody 8A12 (VHH)
VHH: EVQLVESGGGLVQAGGSLRVSCAASGLTFSRYNMGWFRQAPGKERDFVAAISSSDGSILYENSVKGRFTISRDNAENTVYLQMNSLEPEDTGVYYCAGSIVMSTLARKYDYWGQGTLVTVSS
notes: as for B5
- IC50 (M) inhibition of ERK phosphorylation induced by 1 nM MSP through RON on T-47D cells; purified nanobody, HTRF phospho-ERK [1]: 1.3e-08 M
- maximum inhibition (efficacy) of MSP-induced ERK phosphorylation in T-47D cells [1]: 100%
- koff [2]: 0.0028 s⁻¹
- EC50 [3]: 0.12 nM
- IC50 [4]: 7 nM
- maximum inhibition of MSP binding [4]: 96%

B7: nanobody NGS00009 (VHH)
VHH: EVQLVESGGGLVQAGDSLRLSCAASGRTFSTYALGWFRQAPGKEREFVAVISGRGGTTYYAGSVKGRLTISRDNAKNTVYLQMNSLKPEDTAVYYCAAGSDFGAVVDNRPDYWGQGTLVTVSS
notes: as for B3
- binding result [6]: binds

B8: nanobody 5C06 (VHH)
VHH: EVQLVESGGGLVQPGGSLRLSCAASGFTLDYYAIGWFRQAPGKEREGVSCISSSDGSTYYADSVKGRFTISRDNAKNTVYLQMNSLKPEDTAVYYCATDLKRRCRDYARPQRGNDYWGQGTQVTVSS
notes: as for B5
- IC50 (M) inhibition of ERK phosphorylation induced by 1 nM MSP through RON on T-47D cells; purified nanobody, HTRF phospho-ERK [1]: 1.2e-07 M
- maximum inhibition (efficacy) of MSP-induced ERK phosphorylation in T-47D cells [1]: 98%
- koff [2]: 0.0037 s⁻¹
- EC50 [3]: 200 nM
- IC50 [4]: 22 nM
- maximum inhibition of MSP binding [4]: 98%
